Test results from IntAct's records for PubMed 20168298.

Molecular target: T1, pkd2_human PKD2 (UniProt Q13563)
T1 sequence: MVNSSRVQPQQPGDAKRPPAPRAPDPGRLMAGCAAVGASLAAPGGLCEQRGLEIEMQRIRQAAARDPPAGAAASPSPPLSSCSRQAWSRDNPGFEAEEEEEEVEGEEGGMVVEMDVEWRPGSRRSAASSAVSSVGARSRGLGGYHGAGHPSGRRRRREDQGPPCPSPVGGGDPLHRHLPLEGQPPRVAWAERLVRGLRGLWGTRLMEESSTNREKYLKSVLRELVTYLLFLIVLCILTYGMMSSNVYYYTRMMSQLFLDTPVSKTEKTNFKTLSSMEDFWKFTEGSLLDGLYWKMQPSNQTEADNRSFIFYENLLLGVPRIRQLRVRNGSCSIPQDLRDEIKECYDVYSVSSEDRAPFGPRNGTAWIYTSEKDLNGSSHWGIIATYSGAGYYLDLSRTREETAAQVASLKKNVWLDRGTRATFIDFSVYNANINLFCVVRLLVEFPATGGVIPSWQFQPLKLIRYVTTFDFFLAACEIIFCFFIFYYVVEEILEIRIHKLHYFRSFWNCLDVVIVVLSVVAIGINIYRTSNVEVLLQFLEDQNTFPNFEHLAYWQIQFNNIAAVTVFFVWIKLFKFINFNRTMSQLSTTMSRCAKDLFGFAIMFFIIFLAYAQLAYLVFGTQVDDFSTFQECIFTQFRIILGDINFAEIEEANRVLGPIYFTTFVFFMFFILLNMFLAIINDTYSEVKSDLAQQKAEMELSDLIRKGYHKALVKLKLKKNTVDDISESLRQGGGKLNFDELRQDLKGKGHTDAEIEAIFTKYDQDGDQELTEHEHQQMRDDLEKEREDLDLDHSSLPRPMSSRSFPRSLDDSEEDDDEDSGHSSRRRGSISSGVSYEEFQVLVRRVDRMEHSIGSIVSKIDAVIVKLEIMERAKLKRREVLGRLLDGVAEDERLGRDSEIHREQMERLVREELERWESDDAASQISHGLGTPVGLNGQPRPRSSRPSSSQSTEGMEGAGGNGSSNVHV

effect of a mutation on the interaction: disrupting interaction
Substance: Polycystin-1 (Homo sapiens) (from UniProt P98161) Q4225P
